Source: the supplement of paper PMC10567573

B1: SNX8 (parent)
chain: LHQETQLIHVYLPLTSHILRAFVN
B2: MMP1 (parent)
chain: FHGTRQYKFDPKTKRILTLQKANS

Variants of: B1
Assay: protein stability index of a GFP-peptide fusion (GPS, HEK-293T) (PSI 1-6); higher = more stable
Conditions: c terminus: a fixed tail appended
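Further: lentivirally expressed fusions sorted by FACS into six bins by GFP to DsRed ratio, PSI derived from sequencing read proportions per bin multiplied by bin number.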

Protein stability index, by site and new letter:
H2: V 2.6, F 2.04, Q 2.5, G 2.72, W 3.21, R 1.82, N 2.5, Y 2.96, T 1.68, S 2.03, P 2.04, L 1.83, D 3.62
L1: I 2.88, N 2.75, K 3.1, P 3.01, R 2.06, H 1.85, E 3.18, Q 2.18, F 3.82, V 2.64, D 3.07, T 3.62, A 2.75
E4: T 1.4, M 2.04, Q 3.2, G 2.64, L 2.8, I 2.46, N 3.07, W 1.8, C 1.83, H 1.82, K 4.66, P 2.18, V 3.22, Y 2.38, R 2.25, F 2.34, A 1.83
T5: M 2.39, D 1.78, L 3.03, A 2.03, H 2.17, E 1.98, I 3.8, F 2.83, G 2.26, C 3.39
Q3: I 3.42, P 2.31, N 2.96, A 3.04, H 2.62, C 2.06, D 2.8, R 2.48, K 4.06, W 2.73, F 3.79, Y 3.12, S 3.32, E 2.55, G 2.67, L 2.24, M 2.15, V 2.47

Variants of: B2
Assay: as above
Conditions: c terminus: a fixed tail appended

Protein stability index of substitutions, site by site:
K14: R 1.85, H 1.54, S 1.69, L 1.99, P 2.1, M 2.16, C 2.18, N 2.14, V 2.53, W 1.95, E 1.85, D 2.19, G 1.54, A 2.68, I 1.92, Q 1.82, F 1.98, T 1.61, Y 1.36
T18: A 2.05, N 2.15, L 1.58, K 1.34, D 3.38, H 1.39, G 1.86, M 1.74, W 2.4, P 2.18, R 1.68, F 1.67, Q 1.73, S 1.9, I 1.61, Y 1.51, E 2.07, C 1.55, V 1.04
K21: C 2.53, L 1.32, D 1.88, I 1.78, F 2.14, R 1.82, G 1.11, E 2.86, M 1.54, Q 1.9, S 1.81, A 2.02, V 1.6, N 2.27, T 1.54, P 2.04, H 2.33, Y 2.43
Q20: D 1.88, M 1.45, F 1.91, R 2.37, H 2.09, C 2.16, E 2.03, Y 1.66, V 1.75, L 2.12, K 1.84, T 1.8, I 1.78, N 1.73, P 2.06, S 2.28, G 2.01, W 2.77, A 2.46
T13: G 1.62, D 2.33, I 1.8, V 1.6, H 2.21, Y 1.65, A 2.3, S 1.99, L 2.09, E 1.69, W 2.07, C 2.66, Q 2.37, M 1.67, N 1.96, K 2, F 1.68, R 1.85, P 1.8
K12: Y 3.08, R 2.44, V 1.55, L 1.91, N 2.12, P 2.26, F 2.27, I 1.95, T 1.73, G 1.47, Q 2.04, E 2.4, W 3.25, A 1.87, M 1.7, H 2.21, D 1.53, C 1.86, S 1.57
A22: K 1.99, D 1.48, C 2.07, Y 2.49, W 1.6, M 1.83, L 1.52, F 1.77, N 2.09, R 1.65, G 1.73, I 1.38, T 1.68, E 2.92, Q 2.06, P 2.19, H 2.49, S 2.51, V 1.45
L19: Y 2.34, H 1.59, N 1.94, Q 1.87, P 1.87, A 1.54, K 2.05, M 1.91, G 2.94, E 1.73, F 1.68, C 1.63, W 2.61, D 2.49, S 2.03, T 2.2, V 2.03, R 1.44, I 2.05
R15: E 1.83, H 1.86, F 1.3, G 1.31, N 1.73, P 2.29, T 1.83, M 1.47, W 1.69, C 1.28, Q 2.16, A 2.51, D 1.86, V 1.77, I 2.05, S 1.91, L 2.2, K 1.66, Y 1.57
I16: D 2.5, R 1.36, K 1.67, M 1.64, Q 1.94, Y 1.35, A 2.8, W 1.95, V 2.25, N 1.84, C 1.68, H 1.42, G 1.64, L 2.21, F 1.64, S 1.7, T 1.91, E 1.93, P 1.93
S24: M 1.85, N 2.16, P 2.08, V 1.79, Y 1.67, K 1.84, E 1.79, Q 2.07, D 1.77, I 2.09, H 2.58, G 2.03, T 1.65, F 1.59, A 1.6, L 1.76, C 2.01, R 1.3
P11: Q 2.29, W 2.19, K 1.83, N 1.93, F 1.07, Y 2.13, M 1.83, R 1.88, S 1.78, G 1.66, I 2.57, E 1.67, L 1.52, C 1.79, T 2.43, H 1.98, V 1.8, D 2.01
L17: D 1.91, W 1.88, G 2.38, R 2.56, I 1.78, K 2.1, F 1.56, Y 1.95, E 1.59, T 2.2, A 1.92, N 1.6, C 2.02, P 1.57, M 1.53, V 1.73, Q 2.19, H 2.17, S 1.8
N23: L 2.08, Q 1.85, W 1.51, S 1.93, R 2.38, K 3.21, M 1.8, T 1.29, E 1.91, P 1.67, H 1.88, C 2.32, A 1.37, I 2.87, F 1.25, Y 2.1, D 2.46, G 1.39, V 2.08
